Data published in patent US12358959B2, “Compositions and methods for oligodendrocyte development” (CHILDREN'S MEDICAL CENTER CORPORATION, priority 2016, dated 2025).
Values belong to the molecule of their own block, whether it stands above or below them.

Assays:
[1] = molecular target: T1, GPR56^N (Mus musculus, UniProt Q8K209); experiment: In vitro biotinylation/proteomics pull-down from mixed glial cell lysate with mass spectrometry; settings: peptide sequences specific for binding to GPR56^N
T1 construct: Using the soluble N-terminal fragment of GPR56 (GPR56^N); made in house
Excerpt: To identify the ligand of GPR56 in OPCs, an in vitro biotinylation/proteomics approach was employed using single-step capture on streptavidin beads to purify the binding partner(s) of GPR56 (FIGS. 2A-2B). Proteins with more than five identified tryptic peptides in the Mass Spectrometry (MS) output from three independent experiments are listed at Table 1.
(§1) GPR56^N and GPR56^Ndel fusions proteins with either mFc or hFc tag were generated as previously described (Luo et al. Proc Natl Acad Sci USA 108, 12925-12930, 2011). BirA enzyme was used to in vitro biotinylate GPR56^N-mFc-biotag protein as previously described (De Laurenzi and Melino Mol Cell Biol 21, 148-155, 2001). Mixed glial cell lysate was incubated with biotinylated GPR56^N protein in lysis buffer [20 mM Hepes (pH 7.3), 150 mM NaCl, and 5 mM MgCl2] with protein inhibitor mixture (Roche Molecular Biochemicals) and 1% Brij 96 (Fluka). Streptavidin beads (Sigma) were used to affinity purify immunocomplexes. GPR56-associated proteins were eluted in 2×SDS loading buffer, subjected to SDS/PAGE. The whole lane was used for MS at the Taplin Biological Mass Spectrometry at Havard Medical School. MS data were searched against the mouse International Protein Index (IPI mouse 339) database using the protein identification software Mascot (v2.2.04, Matrix Sciences) (Luo et al. Proc Natl Acad Sci USA 108, 12925-12930, 2011).
as §1, with “al.,” for “al.”, “(Stacey et al., J” for “(De Laurenzi and Melino Mol Cell”, “Chem 277, 29283-29293, 2002).” for “21, 148-155, 2001).”, “(20” for “[20”, “[pH 7.3],” for “(pH 7.3),”, “MgCl2)” for “MgCl2]”

[2] = molecular target: Transglutaminase 2 (Tgm2), mouse, endogenous (mixed glial cell lysate / microglia-derived) (mouse) (UniProt P21981); experiment: streptavidin pull-down of biotinylated GPR56^N-mFc from mixed glial cell lysate, tryptic peptide mass spectrometry
[3] = molecular target: Plectin (Plec), mouse, endogenous (mixed glial cell lysate) (mouse) (UniProt Q9QXS1); experiment: as above
[4] = tested on: oligodendrocyte precursors (OPCs); experiment: OPC proliferation on laminin-111 or fibronectin with recombinant TG2; type: cell-based, mouse
Excerpt: P=0.70 (control vs. TG2-W241A); **P=0.0088 (TG2 vs. TG2-W241A). […] FIG. 16D depicts a Western blot of active RhoA (top panel) and total RhoA (bottom panel) in the corpus callosum (CC) of Tgm2^+/+ and Tgm2^−/− mice. FIG. 16E is a graph showing that the relative level of active RhoA to total RhoA was diminished in the CC of Tgm2^−/− mice compared to […]. *P=0.0207, unpaired t-test, N=3 per genotype. FIG. 16F depicts a Western blot of GPR56^N in the supernatant of HEK 293T cell culture after exposed to either TG2 or TG2+laminin-111 (top panel), GTP-RhoA (middle panel) and total RhoA (lower panel) in HEK 293T cell pellet exposed to either TG2 or TG2+laminin-111. FIG. 16G is a graph showing that released GPR56 NTF was increased in the presence of both TG2 and laminin-111. ***P=0.0002; One-way ANOVA followed by Tukey post-hoc test, F (2,6)=49.66, n.s. P=0.95 (control vs. TG2); ***P=0.0003 (control vs. TG2+laminin-111); ***P=0.0004 (TG2 vs. TG2+laminin-111); N=3 per treatment group. FIG. 16H is a graph showing that the relative level of GTP-RhoA to total RhoA was increased in the presence of both TG2 and laminin-111, corresponding to the increased GPR56 NTF in the supernatant. **P=0.0028; One-way ANOVA followed by Tukey post-hoc test, F (2,6)=18.19, n.s. P=0.75 (control vs. TG2); **P=0.0035 (control vs. TG2+laminin-111); **P=0.0071 (TG2 vs. TG2+laminin-111) N=3 per treatment group. Error bars are mean±s.e.m in FIGS. 16E, 16G, and 16H.
To establish conditions for mechanistic investigation of the function of TG2 on OPC GPR56 during myelination and remyelination, in vitro experiments were performed with wt and Gpr56^−/− oligodendrocyte precursors (OPCs) and human recombinant TG2. […] TG2 is an extracellular protein with intrinsic transamidation activity, capable of cross-linking ECM proteins, including laminin-111 (Aeschlimann et al., J Biol Chem 267, 11316-11321, 1992; Belkin, FEBS J 278, 4704-4716, 2011). […] To confirm that TG2 regulates OPC proliferation in a GPR56-dependent manner, OPCs derived from P5 Gpr56^+/+ or Gpr56^−/− pups were cultured in the presence of laminin-111, with or without recombinant TG2. TG2-associated proliferation was attenuated in Gpr56^−/− OPCs (FIG. 16C), further supporting a GPR56-dependent TG2 function on OPC proliferation.
Oligodendrocyte precursor cells (OPCs) were isolated from mixed male and female P5-8 Gpr56^+/+ or Gpr56^−/− mouse forebrains as previously described (Wang et al., Neuron 29, 603-614, 2001; Watkins et al., Neuron 60, 555-569, 2008). Briefly, OPCs were purified by negatively selecting with mouse anti-Thy 1.2 (Serotec, Cat #MCA02R) and mouse anti-GalC (Millipore, Cat #MAB342), followed by mouse anti-04 (04 hybridoma supernatant) for positive selection. After releasing OPCs from the 04 plate by trypsinization, cells were resuspended in proliferation media containing PDGF-AA and NT-3 (PreproTech). OPCs were plated on coverslips coated with poly-D-lysine before coating with laminin I (R&D Systems, Cat #3400-010-01) or fibronectin (Millipore, Cat #341668) as previously described (Dugas et al., J Neurosci 26, 10967-10983, 2006). After 24 hr, TG2 (2 nM) was added to the cultures and incubated for an additional 24 hr before fixation with 4% PFA and staining for PDGFRα and Ki67.

Chain of Plectin (Plec), mouse, endogenous (mixed glial cell lysate) (mouse) (Q9QXS1 whole entry): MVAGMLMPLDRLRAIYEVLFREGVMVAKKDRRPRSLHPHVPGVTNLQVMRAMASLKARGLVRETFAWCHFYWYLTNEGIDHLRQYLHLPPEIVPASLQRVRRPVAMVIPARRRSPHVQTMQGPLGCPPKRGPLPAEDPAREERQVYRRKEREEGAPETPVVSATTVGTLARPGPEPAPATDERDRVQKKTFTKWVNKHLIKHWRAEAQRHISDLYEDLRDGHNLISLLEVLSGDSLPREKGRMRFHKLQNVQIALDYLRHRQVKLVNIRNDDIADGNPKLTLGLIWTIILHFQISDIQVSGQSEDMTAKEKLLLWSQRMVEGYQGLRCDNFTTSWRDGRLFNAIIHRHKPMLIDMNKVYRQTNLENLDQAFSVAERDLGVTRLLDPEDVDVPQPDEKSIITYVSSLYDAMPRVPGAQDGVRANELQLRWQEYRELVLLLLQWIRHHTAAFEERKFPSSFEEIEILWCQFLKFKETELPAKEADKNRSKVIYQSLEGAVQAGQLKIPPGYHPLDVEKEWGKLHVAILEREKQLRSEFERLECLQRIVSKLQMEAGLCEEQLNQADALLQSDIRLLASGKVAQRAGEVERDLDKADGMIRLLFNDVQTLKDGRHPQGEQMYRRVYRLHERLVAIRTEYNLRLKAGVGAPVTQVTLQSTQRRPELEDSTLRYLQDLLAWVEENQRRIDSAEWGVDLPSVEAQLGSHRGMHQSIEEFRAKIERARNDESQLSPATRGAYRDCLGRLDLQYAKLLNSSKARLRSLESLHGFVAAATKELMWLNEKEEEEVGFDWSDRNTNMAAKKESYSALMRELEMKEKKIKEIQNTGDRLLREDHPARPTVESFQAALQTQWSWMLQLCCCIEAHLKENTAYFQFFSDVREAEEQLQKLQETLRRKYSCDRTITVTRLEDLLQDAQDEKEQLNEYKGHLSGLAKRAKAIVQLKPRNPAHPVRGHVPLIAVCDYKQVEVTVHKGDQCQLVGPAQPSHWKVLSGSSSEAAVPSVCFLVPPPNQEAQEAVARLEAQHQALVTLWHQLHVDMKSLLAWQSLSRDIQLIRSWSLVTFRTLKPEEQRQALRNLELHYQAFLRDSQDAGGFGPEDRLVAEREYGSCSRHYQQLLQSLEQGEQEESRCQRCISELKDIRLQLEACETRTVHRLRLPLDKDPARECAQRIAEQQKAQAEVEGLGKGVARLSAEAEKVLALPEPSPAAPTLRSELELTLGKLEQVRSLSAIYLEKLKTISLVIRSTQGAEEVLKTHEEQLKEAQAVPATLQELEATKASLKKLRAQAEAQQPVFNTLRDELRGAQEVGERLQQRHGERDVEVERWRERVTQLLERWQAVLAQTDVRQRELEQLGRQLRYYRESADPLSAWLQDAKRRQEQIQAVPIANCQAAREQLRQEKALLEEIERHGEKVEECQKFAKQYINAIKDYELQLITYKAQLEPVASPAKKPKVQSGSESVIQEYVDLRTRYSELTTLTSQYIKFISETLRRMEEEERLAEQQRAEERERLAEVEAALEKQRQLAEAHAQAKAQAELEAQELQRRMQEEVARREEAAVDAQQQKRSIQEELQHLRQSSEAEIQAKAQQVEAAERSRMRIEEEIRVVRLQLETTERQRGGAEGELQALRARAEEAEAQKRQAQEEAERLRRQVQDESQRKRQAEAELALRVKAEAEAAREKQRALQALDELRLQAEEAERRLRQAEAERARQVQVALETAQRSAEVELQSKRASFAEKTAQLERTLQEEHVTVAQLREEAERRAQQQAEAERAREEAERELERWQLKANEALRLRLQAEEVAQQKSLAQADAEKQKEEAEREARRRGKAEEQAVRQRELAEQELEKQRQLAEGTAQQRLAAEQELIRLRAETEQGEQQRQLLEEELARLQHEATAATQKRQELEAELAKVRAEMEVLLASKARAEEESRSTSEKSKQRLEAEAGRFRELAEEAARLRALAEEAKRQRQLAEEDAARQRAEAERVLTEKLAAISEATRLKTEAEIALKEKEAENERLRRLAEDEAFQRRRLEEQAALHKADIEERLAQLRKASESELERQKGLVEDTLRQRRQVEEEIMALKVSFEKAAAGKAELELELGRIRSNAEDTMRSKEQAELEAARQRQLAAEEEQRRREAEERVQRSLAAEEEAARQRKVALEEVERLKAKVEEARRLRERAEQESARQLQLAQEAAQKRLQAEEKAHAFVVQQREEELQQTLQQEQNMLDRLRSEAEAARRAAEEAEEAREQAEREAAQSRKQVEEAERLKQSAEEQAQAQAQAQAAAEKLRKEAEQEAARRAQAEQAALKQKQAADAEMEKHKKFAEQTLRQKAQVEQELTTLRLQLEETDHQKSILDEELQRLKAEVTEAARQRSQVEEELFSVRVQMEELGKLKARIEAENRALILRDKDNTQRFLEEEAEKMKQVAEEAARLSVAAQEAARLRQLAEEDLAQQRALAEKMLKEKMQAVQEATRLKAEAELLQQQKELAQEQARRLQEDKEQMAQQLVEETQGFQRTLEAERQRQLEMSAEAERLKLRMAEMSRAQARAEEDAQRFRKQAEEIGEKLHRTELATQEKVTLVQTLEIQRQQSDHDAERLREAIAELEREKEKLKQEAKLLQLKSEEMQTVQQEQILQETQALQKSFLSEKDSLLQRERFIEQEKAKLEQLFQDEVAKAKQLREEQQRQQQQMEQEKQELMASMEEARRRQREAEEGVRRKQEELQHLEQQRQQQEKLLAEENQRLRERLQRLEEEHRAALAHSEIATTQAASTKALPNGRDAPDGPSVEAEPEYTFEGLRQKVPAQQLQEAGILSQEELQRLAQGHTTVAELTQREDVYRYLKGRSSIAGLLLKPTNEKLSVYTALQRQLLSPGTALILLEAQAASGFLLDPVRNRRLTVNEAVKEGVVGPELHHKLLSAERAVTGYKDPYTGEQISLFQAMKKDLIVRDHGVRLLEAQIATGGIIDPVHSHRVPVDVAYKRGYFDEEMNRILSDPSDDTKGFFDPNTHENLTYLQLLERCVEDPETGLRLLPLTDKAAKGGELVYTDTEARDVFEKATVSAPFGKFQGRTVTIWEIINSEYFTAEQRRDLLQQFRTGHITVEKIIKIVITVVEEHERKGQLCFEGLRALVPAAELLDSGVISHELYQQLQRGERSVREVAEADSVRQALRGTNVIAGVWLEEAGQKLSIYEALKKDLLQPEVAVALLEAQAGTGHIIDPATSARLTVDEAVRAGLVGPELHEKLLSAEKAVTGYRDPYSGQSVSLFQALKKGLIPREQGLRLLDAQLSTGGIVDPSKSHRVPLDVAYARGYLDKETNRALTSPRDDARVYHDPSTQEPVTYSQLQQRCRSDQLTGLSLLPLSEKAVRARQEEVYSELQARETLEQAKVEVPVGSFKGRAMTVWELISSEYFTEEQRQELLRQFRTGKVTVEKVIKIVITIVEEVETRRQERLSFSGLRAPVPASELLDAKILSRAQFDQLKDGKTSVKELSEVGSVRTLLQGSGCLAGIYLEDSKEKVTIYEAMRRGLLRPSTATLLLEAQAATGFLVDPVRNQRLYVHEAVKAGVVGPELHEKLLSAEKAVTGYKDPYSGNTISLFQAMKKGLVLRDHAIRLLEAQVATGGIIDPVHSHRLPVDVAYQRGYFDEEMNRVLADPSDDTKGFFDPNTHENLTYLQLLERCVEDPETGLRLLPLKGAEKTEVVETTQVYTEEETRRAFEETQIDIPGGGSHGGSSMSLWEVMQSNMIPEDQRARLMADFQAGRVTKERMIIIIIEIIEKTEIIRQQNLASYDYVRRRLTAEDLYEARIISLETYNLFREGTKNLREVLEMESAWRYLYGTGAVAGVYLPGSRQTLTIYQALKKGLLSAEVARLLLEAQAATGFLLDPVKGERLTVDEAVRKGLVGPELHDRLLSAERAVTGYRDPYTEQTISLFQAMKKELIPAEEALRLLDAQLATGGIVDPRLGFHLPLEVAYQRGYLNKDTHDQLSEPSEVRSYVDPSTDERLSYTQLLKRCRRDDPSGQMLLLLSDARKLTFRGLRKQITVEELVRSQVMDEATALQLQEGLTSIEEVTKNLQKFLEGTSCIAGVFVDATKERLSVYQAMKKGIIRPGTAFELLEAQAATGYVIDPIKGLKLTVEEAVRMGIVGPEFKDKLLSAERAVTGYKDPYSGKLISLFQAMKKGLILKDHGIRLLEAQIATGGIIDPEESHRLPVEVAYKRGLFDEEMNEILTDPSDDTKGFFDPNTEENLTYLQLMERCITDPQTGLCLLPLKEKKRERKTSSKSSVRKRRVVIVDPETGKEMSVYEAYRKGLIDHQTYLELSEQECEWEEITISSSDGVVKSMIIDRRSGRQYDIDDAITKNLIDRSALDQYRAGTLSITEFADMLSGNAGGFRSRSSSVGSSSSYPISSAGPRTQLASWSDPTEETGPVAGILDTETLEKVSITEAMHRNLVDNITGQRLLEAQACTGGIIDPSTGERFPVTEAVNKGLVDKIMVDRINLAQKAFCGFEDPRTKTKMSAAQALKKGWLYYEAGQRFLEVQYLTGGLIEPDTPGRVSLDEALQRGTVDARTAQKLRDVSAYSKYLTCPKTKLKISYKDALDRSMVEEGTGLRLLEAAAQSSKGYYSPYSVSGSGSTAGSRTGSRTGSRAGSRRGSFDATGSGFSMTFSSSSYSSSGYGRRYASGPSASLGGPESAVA
T1 sequence (Q8K209 26-382 limits assumed): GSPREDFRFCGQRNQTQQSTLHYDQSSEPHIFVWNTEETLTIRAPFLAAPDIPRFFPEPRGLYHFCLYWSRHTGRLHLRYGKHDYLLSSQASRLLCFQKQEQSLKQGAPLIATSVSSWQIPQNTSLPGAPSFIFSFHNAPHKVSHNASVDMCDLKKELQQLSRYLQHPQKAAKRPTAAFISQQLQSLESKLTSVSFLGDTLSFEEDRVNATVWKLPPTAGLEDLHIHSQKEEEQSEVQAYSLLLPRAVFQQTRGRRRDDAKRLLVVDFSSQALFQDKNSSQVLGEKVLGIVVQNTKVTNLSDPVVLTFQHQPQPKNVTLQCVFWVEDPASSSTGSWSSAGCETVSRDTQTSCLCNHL

Molecule: fibronectin [reference compound]
OPC proliferation ([4]; wt OPCs, fibronectin as specificity control in place of laminin-111, with recombinant TG2): inert

B1: TG2-W241A: transamidation-inactive, enzymatic dead mutant TG2 protein (protein)
chain: MAEELVLERCDLELETNGRDHHTADLCREKLVVRRGQPFWLTLHFEGRNYEASVDSLTFSVVTGPAPSQEAGTKARFPLRDAVEEGDWTATVVDQQDCTLSLQLTTPANAPIGLYRLSLEASTGYQGSSFVLGHFILLFNAWCPADAVYLDSEEERQEYVLTQQGFIYQGSAKFIKNIPWNFGQFEDGILDICLILLDVNPKFLKNAGRDCSRRSSPVYVGRVVSGMVNCNDDQGVLLGRADNNYGDGVSPMSWIGSVDILRRWKNHGCQRVKYGQCWVFAAVACTVLRCLGIPTRVVTNYNSAHDQNSNLLIEYFRNEFGEIQGDKSEMIWNFHCWVESWMTRPDLQPGYEGWQALDPTPQEKSEGTYCCGPVPVRAIKEGDLSTKYDAPFVFAEVNADVVDWIQQDDGSVHKSINRSLIVGLKISTKSVGRDEREDITHTYKYPEGSSEEREAFTRANHLNKLAEKEETGMAMRIRVGQSMNMGSDFDVFAHITNNTAEEYVCRLLLCARTVSYNGILGPECGTKYLLNLNLEPFSEKSVPLCILYEKYRDCLTESNLIKVRALLVEPVINSYLLAERDLYLENPEIKIRILGEPKQKRKLVAEVSLQNPLPVALEGCTFTVEGAGLTEEQKTVEIPDPVEAGEEVKVRMDLLPLHMGLHKLVVNFESDKLKAVKGFRNVIIGPA
OPC proliferation, wild type TG2 vs enzymatic dead mutant ([4]; versus control, One-way ANOVA, Tukey post-hoc): failed to promote OPC proliferation and n.s.

Second part, the molecule after the results:

Peptide Number (Exp1) ([1]; experiment 1): 21
Peptide Number (Exp2) ([1]; experiment 2): 22
Peptide Number (Exp3) ([1]; experiment 3): 23
Molecule: Plectin (Plec): protein from mixed glial cell lysate purified with GPR56^N

Peptide Number (Exp1) [2]: 19 peptides
Peptide Number (Exp2) [2]: 20 peptides
Peptide Number (Exp3) [2]: 17 peptides
Peptide Number (Exp1) [3]: 21 peptides
Peptide Number (Exp2) [3]: 22 peptides
Peptide Number (Exp3) [3]: 23 peptides
Molecule: biotinylated GPR56^N-mFc-biotag protein (Fc fusion)
